Test [1] has as its target T1, human calcitonin receptor (human, UniProt P30988 25-474).
T1 construct: whole, on cells; Used as cell membranes; also called hCTR; hCT
T1 sequence (looked up): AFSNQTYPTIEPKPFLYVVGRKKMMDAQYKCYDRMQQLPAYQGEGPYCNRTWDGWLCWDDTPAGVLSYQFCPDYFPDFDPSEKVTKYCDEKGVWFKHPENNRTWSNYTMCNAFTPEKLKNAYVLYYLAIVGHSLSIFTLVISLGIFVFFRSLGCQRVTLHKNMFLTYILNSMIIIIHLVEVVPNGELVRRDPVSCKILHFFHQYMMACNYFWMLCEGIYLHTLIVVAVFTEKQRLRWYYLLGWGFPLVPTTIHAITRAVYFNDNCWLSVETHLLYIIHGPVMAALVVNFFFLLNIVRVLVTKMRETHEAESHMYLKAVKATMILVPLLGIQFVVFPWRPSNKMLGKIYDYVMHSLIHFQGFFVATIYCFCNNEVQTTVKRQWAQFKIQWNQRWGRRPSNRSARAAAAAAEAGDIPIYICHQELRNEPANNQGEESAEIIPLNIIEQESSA
In words: SPA competition on BHK cell membranes, 125I-calcitonin as radioligand (Assay VII). The method, boiled down: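 BHK hCTR membranes 35 ng/μL + SPA beads 0.05 mg/well; buffer 50 mM Hepes pH 7.4, 1 mM CaCl2, 5 mM MgCl₂, 0.1% OA, 0.02% Tween20. 120 min, 25° C., shaking. Scintillation count; IC50 by one-site binding competition.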

The target of test [2] is T1, human calcitonin receptor. The experiment in a line: ratio of hCTR IC50 to hAmylin-R IC50 (reference: human amylin receptor). The method, boiled down:
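IC₅₀ values were derived by one-site competition analysis of SPA counts. Cell membranes (35 ng/μL) with SPA beads were incubated with test compounds for 120 min at 25° C in Hepes buffer, pH 7.4, containing CaCl2, MgCl₂, OA and Tween20.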

In test [3] the target is T2, human amylin receptor (amylin 3(a) receptor: human calcitonin receptor with RAMP-3) (human, UniProt P30988 25-474; O60896 24-148).
T2 construct: whole, on cells; Used as cell membranes of the Amylin 3(a)/CRE-luc BHK cells; the species of RAMP-3 is only implied by the name human amylin receptor; also called hAmylin-R; hAmylinR
T2 sequence (looked up) 1: T1 sequence (looked up)
T2 sequence (looked up) 2: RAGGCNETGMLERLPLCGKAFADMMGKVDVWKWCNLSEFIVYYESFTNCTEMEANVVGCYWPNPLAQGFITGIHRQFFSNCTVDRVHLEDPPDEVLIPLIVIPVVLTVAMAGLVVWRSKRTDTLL
In words: SPA competition on BHK cell membranes, 125I-rat amylin as radioligand (Assay V). As for the experimental part:
(§1) The binding assay was performed using scintillation proximity assay (SPA) beads (RPNQ0001) from PerkinElmer and cell membranes from the Amylin 3(a)/CRE-luc cells (as described in Assay (II)) were used. Membranes were prepared in the following way; the cells were rinsed with PBS and incubated with Versene for approximately 5 min before harvesting. The cells were flushed with PBS and the cell-suspension was centrifuged for 5 min at 1000 rpm. Cells were homogenized (ultrathurrax) in a buffer containing 20 mM Na-HEPES and 10 mM EDTA (pH 7.4) and centrifuged at 20.000 rpm for 15 min. The resulting pellet was resuspended, homogenized and centrifuged (20.000 rpm, 15 min) in a buffer containing 20 mM Na-HEPES and 0.1 mM EDTA (pH 7.4, buffer 2). The resulting pellet was resuspended in buffer 2 and protein concentration was measured (BCA protein Assay, Pierce). The homogenate was kept cold during the whole procedure. The membranes were kept at −80° C. until use. The assay was performed in a 384 well Optiplate (PerkinElmer) in a total volume of 40 ul. Membranes were mixed with SPA beads. Final concentration of membranes 35 ng/μL final and SPA beads was 0.05 mg/well. Test-compounds were dissolved in DMSO and further diluted in assay buffer (50 mM Hepes, pH 7.4, 1 mM CaCl2, 5 mM MgCl₂, 0.1% OA and 0.02% Tween20). […] The final mixture was incubated with shaking at 400 rpm for 120 min at 25° C. prior to centrifugation (1500 rpm, 10 min). Samples were analyzed on TopCounter™ (Packard). The IC₅₀ was calculated using (one site binding competition analysis) GraphPad Prism5 as a measure of receptor affinity.

Test [4] deals with T3, human calcitonin receptor (human, UniProt P30988 25-474).
T3 construct: whole, on cells; Membranes in a scintillation proximity assay (Assay VII); also called hCTR; hCT
T3 sequence (looked up): T1 sequence (looked up)
The experiment in a line: SPA competition binding, displacement of 125I-calcitonin from membranes with human calcitonin receptor (Assay VII). The procedure: Membranes were prepared in the following way; the cells were rinsed with PBS and incubated with Versene for approximately 5 min before harvesting. The cells were flushed with PBS and the cell-suspension was centrifuged for 5 min at 1000 rpm. Cells were homogenized (Ultrathurrax) in a buffer containing 20 mM Na-HEPES and 10 mM EDTA (pH 7.4) and centrifuged at 20.000 rpm for 15 min. The resulting pellet was resuspended, homogenized and centrifuged (20.000 rpm, 15 min) in a buffer containing 20 mM Na-HEPES and 0.1 mM EDTA (pH 7.4, buffer 2). The resulting pellet was resuspended in buffer 2 and protein concentration was measured (BCA protein Assay, Pierce). The homogenate was kept cold during the whole procedure. The membranes were kept at −80° C. until use. Assay was performed in a 384 well Optiplate (PerkinElmer) in a total volume of 40 ul. Membranes were mixed with SPA beads. Final concentration of membranes 35 ng/μL final and Final concentration of SPA beads was 0.05 mg/well. Test-compounds were dissolved in DMSO and further diluted in assay buffer (50 mM Hepes, pH 7.4, 1 mM CaCl2, 5 mM MgCl₂, 0.1% OA and 0.02% Tween20). […] The final mixture was incubated for 120 min with shaking at 400 rpm at 25° C. prior to centrifugation (1500 rpm, 10 min). Samples were analyzed on TopCounter™ (Packard). The […] was calculated using (one site binding competition analysis) GraphPad Prism5 as a measure of receptor affinity.
For orientation: Loss of bound radioactivity is the signal in a displacement assay; it reports binding, not function.

Test [5] deals with T4, human amylin receptor (amylin 3(a) receptor: human calcitonin receptor with RAMP-3) (human, UniProt P30988 25-474; O60896 24-148).
T4 construct: whole, on cells; the functional assay (Assay IIa) used the whole cells; also called hAmylin-R; hAmylinR
T4 sequence (looked up) 1: T1 sequence (looked up)
T4 sequence (looked up) 2: T2 sequence (looked up) 2
In words: SPA competition, displacement of 125I-rat amylin from membranes of BHK cells with the human amylin 3(a) receptor. As for the experimental part: as §1

Test [6] deals with T5, human calcitonin receptor (human, UniProt P30988 25-474).
T5 sequence (looked up): T1 sequence (looked up)
The experiment in a line: cell-based or functional assay.

For test [7], the target named is T4, human amylin receptor (amylin 3(a) …). The experiment in a line: cell-based or functional assay.

Numbered stars: 1 amine (or outer) side, 2 acyl side, 3 side chain; on linkers, the order of the positions; unused ones are H or OH. Bridge positions count the residues as written; N and C are the ends. Square brackets hold non-standard residues; d marks the D form. Side chains are listed from the residue outwards. Ends that are not written are not given here. * marks the point of attachment. C20 diacid = O=C(O)CCCCCCCCCCCCCCCCCCC(=O)*; γGlu = O=C(O)[C@H](CCC(=O)[*:2])N[*:1]; C14 diacid = O=C(O)CCCCCCCCCCCCC(=O)*

The values below come from US20140087995A1 (published 2014).

B1: N^ε1-[(4S)-4-carboxy-4-(13-carboxytridecanoylamino)butanoyl]-[Arg17,Pro21,Pro27,His34]-h-amylin (peptide)
peptide: K([γGlu-C14 diacid])CNTATCATQRLANFLRHSSPNFGAIPSSTNVGHNTY-NH2
modifications: disulfide 2-7; N-terminus assumed
SMILES: CC[C@H](C)[C@H](NC(=O)[C@H](C)NC(=O)CNC(=O)[C@H](Cc1ccccc1)NC(=O)[C@H](CC(N)=O)NC(=O)[C@@H]1CCCN1C(=O)[C@H](CO)NC(=O)[C@H](CO)NC(=O)[C@H](Cc1c[nH]cn1)NC(=O)[C@H](CCCNC(=N)N)NC(=O)[C@H](CC(C)C)NC(=O)[C@H](Cc1ccccc1)NC(=O)[C@H](CC(N)=O)NC(=O)[C@H](C)NC(=O)[C@H](CC(C)C)NC(=O)[C@H](CCCNC(=N)N)NC(=O)[C@H](CCC(N)=O)NC(=O)[C@@H](NC(=O)[C@H](C)NC(=O)[C@@H]1CSSC[C@H](NC(=O)[C@@H](N)CCCCNC(=O)CC[C@H](NC(=O)CCCCCCCCCCCCC(=O)O)C(=O)O)C(=O)N[C@@H](CC(N)=O)C(=O)N[C@@H]([C@@H](C)O)C(=O)N[C@@H](C)C(=O)N[C@@H]([C@@H](C)O)C(=O)N1)[C@@H](C)O)C(=O)N1CCC[C@H]1C(=O)N[C@@H](CO)C(=O)N[C@@H](CO)C(=O)N[C@H](C(=O)N[C@@H](CC(N)=O)C(=O)N[C@H](C(=O)NCC(=O)N[C@@H](Cc1c[nH]cn1)C(=O)N[C@@H](CC(N)=O)C(=O)N[C@H](C(=O)N[C@@H](Cc1ccc(O)cc1)C(N)=O)[C@@H](C)O)C(C)C)[C@@H](C)O
The term IC50 denotes the concentration that gives 50% inhibition. Take B1: the IC50 in test [1] amounted to 24.3 nM; in test [3], 1.04 nM. Besides, the “Ratio hCT/hAmylin binding” value in test [2] is 23.5.

B2: N^-1-[(4S)-4-carboxy-4-(19-carboxynonadecanoylamino)butanoyl]-Gly[Arg1,His14,Arg17,Pro21,Pro27,His34]-h-amylin (peptide)
peptide: {C20 diacid-γGlu}-GRCNTATCATQRLAHFLRHSSPNFGAIPSSTNVGHNTY-NH2
modifications: disulfide 3-8
SMILES: CC[C@H](C)[C@H](NC(=O)[C@H](C)NC(=O)CNC(=O)[C@H](Cc1ccccc1)NC(=O)[C@H](CC(N)=O)NC(=O)[C@@H]1CCCN1C(=O)[C@H](CO)NC(=O)[C@H](CO)NC(=O)[C@H](Cc1c[nH]cn1)NC(=O)[C@H](CCCNC(=N)N)NC(=O)[C@H](CC(C)C)NC(=O)[C@H](Cc1ccccc1)NC(=O)[C@H](Cc1c[nH]cn1)NC(=O)[C@H](C)NC(=O)[C@H](CC(C)C)NC(=O)[C@H](CCCNC(=N)N)NC(=O)[C@H](CCC(N)=O)NC(=O)[C@@H](NC(=O)[C@H](C)NC(=O)[C@@H]1CSSC[C@H](NC(=O)[C@H](CCCNC(=N)N)NC(=O)CNC(=O)CC[C@H](NC(=O)CCCCCCCCCCCCCCCCCCC(=O)O)C(=O)O)C(=O)N[C@@H](CC(N)=O)C(=O)N[C@@H]([C@@H](C)O)C(=O)N[C@@H](C)C(=O)N[C@@H]([C@@H](C)O)C(=O)N1)[C@@H](C)O)C(=O)N1CCC[C@H]1C(=O)N[C@@H](CO)C(=O)N[C@@H](CO)C(=O)N[C@H](C(=O)N[C@@H](CC(N)=O)C(=O)N[C@H](C(=O)NCC(=O)N[C@@H](Cc1c[nH]cn1)C(=O)N[C@@H](CC(N)=O)C(=O)N[C@H](C(=O)N[C@@H](Cc1ccc(O)cc1)C(N)=O)[C@@H](C)O)C(C)C)[C@@H](C)O
notes: 38 residues; also called compound 100
Turning to B2, the IC50 in test [1] amounted to 66.3 nM; in test [3], 1.01 nM. In addition, in test [2], the “Ratio hCT/hAmylin binding” value was determined as 65.3.

B3: N^ε1-[(4S)-4-carboxy-4-[[(4S)-4-carboxy-4-(19-carboxynonadecanoylamino)butanoyl]amino]butanoyl]-[D-Asp14,Arg17,Pro21,Pro27,Arg35]-h-amylin (peptide)
peptide: K([γGlu-γGlu-C20 diacid])CNTATCATQRLA[dD]FLRHSSPNFGAIPSSTNVGSRTY-NH2
modifications: disulfide 2-7 (inferred)
For B3, in test [4], the IC50 is 112 nM.

B4: N^α1-[(4S)-4-carboxy-4-(19-carboxynonadecanoylamino)butanoyl]-[Glu14,Arg17,Pro21,Pro25,Pro28,Pro29,Pro37]-h-amylin (peptide)
peptide: {C20 diacid-γGlu}-KCNTATCATQRLAEFLRHSSPNFGPILPPTNVGSNTP-NH2
modifications: disulfide 2-7
SMILES: CC[C@H](C)[C@H](NC(=O)[C@@H]1CCCN1C(=O)CNC(=O)[C@H](Cc1ccccc1)NC(=O)[C@H](CC(N)=O)NC(=O)[C@@H]1CCCN1C(=O)[C@H](CO)NC(=O)[C@H](CO)NC(=O)[C@H](Cc1c[nH]cn1)NC(=O)[C@H](CCCNC(=N)N)NC(=O)[C@H](CC(C)C)NC(=O)[C@H](Cc1ccccc1)NC(=O)[C@H](CCC(=O)O)NC(=O)[C@H](C)NC(=O)[C@H](CC(C)C)NC(=O)[C@H](CCCNC(=N)N)NC(=O)[C@H](CCC(N)=O)NC(=O)[C@@H](NC(=O)[C@H](C)NC(=O)[C@@H]1CSSC[C@H](NC(=O)[C@H](CCCCN)NC(=O)CC[C@H](NC(=O)CCCCCCCCCCCCCCCCCCC(=O)O)C(=O)O)C(=O)N[C@@H](CC(N)=O)C(=O)N[C@@H]([C@@H](C)O)C(=O)N[C@@H](C)C(=O)N[C@@H]([C@@H](C)O)C(=O)N1)[C@@H](C)O)C(=O)N[C@@H](CC(C)C)C(=O)N1CCC[C@H]1C(=O)N1CCC[C@H]1C(=O)N[C@H](C(=O)N[C@@H](CC(N)=O)C(=O)N[C@H](C(=O)NCC(=O)N[C@@H](CO)C(=O)N[C@@H](CC(N)=O)C(=O)N[C@H](C(=O)N1CCC[C@H]1C(N)=O)[C@@H](C)O)C(C)C)[C@@H](C)O
notes: also called compound 4
As for B4, the IC50 in test [5] came out at 0.321 nM. Further, in test [6], the “Ratio hCT/hAmylin funct.” value came out at 1.2 and the “hCTR funct. EC50” value was 0.07 nM. The “hAmylin-R funct. EC50” value in test [7] worked out at 0.06 nM.
